In patent publication US20240067738A1 one finds koff data, which are given here for five molecules.

In this assay the target is canine FcRn with a poly-His tag and canine B2M heterodimer complex (canine). The assay is described as follows: SPR (Biacore T200), biotinylated canine FcRn/B2M complex on chip, Fc as analyte, pH 6.0.

Broadly, the koff is a measure of how fast the partners let go of each other.

Several values for one entry are separate records, joined by “and”; a condition that tells them apart may be missing. Identical values can stand only once.

Sequence of canine FcRn with a poly-His tag and canine B2M heterodimer complex (canine) (chain, as listed by the source limits assumed, chain 1 of 2): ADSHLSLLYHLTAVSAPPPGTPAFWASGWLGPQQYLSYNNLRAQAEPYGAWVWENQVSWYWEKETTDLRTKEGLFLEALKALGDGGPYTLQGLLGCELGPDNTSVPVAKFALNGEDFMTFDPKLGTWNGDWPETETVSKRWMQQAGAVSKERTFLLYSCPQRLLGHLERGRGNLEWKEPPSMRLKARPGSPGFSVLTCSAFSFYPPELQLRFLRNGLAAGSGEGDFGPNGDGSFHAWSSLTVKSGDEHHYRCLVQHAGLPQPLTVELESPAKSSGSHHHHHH
Sequence of canine FcRn with a poly-His tag and canine B2M heterodimer complex (canine) (b2m, as listed by the source limits assumed, chain 2 of 2): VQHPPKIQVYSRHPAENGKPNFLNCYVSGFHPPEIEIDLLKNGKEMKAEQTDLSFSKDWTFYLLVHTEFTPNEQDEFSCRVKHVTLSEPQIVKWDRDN

B1: wild-type canine IgG-B Fc polypeptide (SASA tag) (protein, part only; not given: SASA tag, not shown: another chain or arm of the molecule; small tags and cut ends)
Fc: PAPEMLGGPSVFIFPPKPKDTLLIARTPEVTCVVVDLDPEDPEVQISWFVDGKQMQTAKTQPREEQFNGTYRVVSVLPIGHQDWLKGKQFTCKVNNKALPSPIERTISKARGQAHQPSVYVLPPSREELSKNTVSLTCLIKDFFPPDIDVEWQSNGQQEPESKYRTTPPQLDEDGSYFLYSKLSVDKSRWQRGDTFICAVMHEALHNHYTQESLSHSPGK
In turn, B1 returned a koff of 0.122 s⁻¹.

B2: variant canine IgG-B Fc polypeptide L(23)F (SASA tag) (protein, part only; not given: SASA tag, not shown: another chain or arm of the molecule; small tags and cut ends)
Fc: PAPEMLGGPSVFIFPPKPKDTLFIARTPEVTCVVVDLDPEDPEVQISWFVDGKQMQTAKTQPREEQFNGTYRVVSVLPIGHQDWLKGKQFTCKVNNKALPSPIERTISKARGQAHQPSVYVLPPSREELSKNTVSLTCLIKDFFPPDIDVEWQSNGQQEPESKYRTTPPQLDEDGSYFLYSKLSVDKSRWQRGDTFICAVMHEALHNHYTQESLSHSPGK
On to B2, for which the koff was 0.0631 s⁻¹ and 0.0847 s⁻¹.

B3: variant canine IgG-B Fc polypeptide L(23)M (SASA tag) (protein, part only; not given: SASA tag, not shown: another chain or arm of the molecule; small tags and cut ends)
Fc: PAPEMLGGPSVFIFPPKPKDTLMIARTPEVTCVVVDLDPEDPEVQISWFVDGKQMQTAKTQPREEQFNGTYRVVSVLPIGHQDWLKGKQFTCKVNNKALPSPIERTISKARGQAHQPSVYVLPPSREELSKNTVSLTCLIKDFFPPDIDVEWQSNGQQEPESKYRTTPPQLDEDGSYFLYSKLSVDKSRWQRGDTFICAVMHEALHNHYTQESLSHSPGK
The molecule B3 had a koff of 0.126 s⁻¹.

B4: variant canine IgG-B Fc polypeptide L(23)Y (SASA tag) (protein, part only; not given: SASA tag, not shown: another chain or arm of the molecule; small tags and cut ends)
Fc: PAPEMLGGPSVFIFPPKPKDTLYIARTPEVTCVVVDLDPEDPEVQISWFVDGKQMQTAKTQPREEQFNGTYRVVSVLPIGHQDWLKGKQFTCKVNNKALPSPIERTISKARGQAHQPSVYVLPPSREELSKNTVSLTCLIKDFFPPDIDVEWQSNGQQEPESKYRTTPPQLDEDGSYFLYSKLSVDKSRWQRGDTFICAVMHEALHNHYTQESLSHSPGK
B4: the koff was 0.0138 s⁻¹.

B5: variant canine IgG-B Fc polypeptide L(23)S (SASA tag) (protein, part only; not given: SASA tag, not shown: another chain or arm of the molecule; small tags and cut ends)
Fc: PAPEMLGGPSVFIFPPKPKDTLSIARTPEVTCVVVDLDPEDPEVQISWFVDGKQMQTAKTQPREEQFNGTYRVVSVLPIGHQDWLKGKQFTCKVNNKALPSPIERTISKARGQAHQPSVYVLPPSREELSKNTVSLTCLIKDFFPPDIDVEWQSNGQQEPESKYRTTPPQLDEDGSYFLYSKLSVDKSRWQRGDTFICAVMHEALHNHYTQESLSHSPGK
Consider B5, for which the koff amounted to 0.241 s⁻¹.
